Laboratory results: paper PMC12757645, “Bacillus subtilis encodes three N-acetylcysteine deacetylase enzymes that can catalyze the final step in S-(2-succino)cysteine breakdown” (The Journal of Biological Chemistry, 2025)

Substrate: CC(=O)N[C@@H](CS)C(=O)O
Experiment: purified protein
Type: biochemical, Bacillus subtilis
Conditions: 50 mM potassium phosphate pH 7.8, 5 mM CoCl2, 37 °C

Protein	Km [µM]	Vmax [µmol/min/mg]	kcat [s⁻¹]	kcat/Km [M⁻¹ s⁻¹]
YhaA (Bacillus subtilis subsp. subtilis str. 168) (protein) MSISTLQKEINKQLDGCFEEMVEIRRHFHMYPELSFQEEKTAAFIASYYESLGVPIRTNVGGRGVLANIEGSEPGPTVALRADFDALPIQDEKDVPYASKVPGVMHACGHDGHTAALLAVAKVLHQNRHELKGTFVMIHQHAEEYYPGGAKPMIDDGCLENTDVIFGTHLWATEPLGTILCRPGAVMAAADRFTIKVFGKGGHGAHPHDTKDAVLIGSQIVSSLQHIVSRKVNPIQSAVISTGSFIADNPFNVIADQAVLIGTARSFDENVRDILEKEIEAVVKGICSMHGASYEYTYEQGYPAVVNHPAETNHLVSTAKNTEGVQQVIDGEPQMGGEDFAYYLQNVKGTFFFTGAAPEQPERVYSHHHPKFDINEKAMLTAAKVLAGAAITYHQL	895.8 ± 338.1	24.7	18.8 ± 1.3	21000 ± 3700
ScmP (Bacillus subtilis subsp. subtilis str. 168) (protein) MADKAFHTRLINMRRDLHEHPELSFQEVETTKKIRRWLEEEQIEILDVPQLKTGVIAEIKGREDGPVIAIRADIDALPIQEQTNLPFASKVDGTMHACGHDFHTASIIGTAMLLNQRRAELKGTVRFIFQPAEEIAAGARKVLEAGVLNGVSAIFGMHNKPDLPVGTIGVKEGPLMASVDRFEIVIKGKGGHAGIPNNSIDPIAAAGQIISGLQSVVSRNISSLQNAVVSITRVQAGTSWNVIPDQAEMEGTVRTFQKEARQAVPEHMRRVAEGIAAGYGAQAEFKWFPYLPSVQNDGTFLNAASEAAARLGYQTVHAEQSPGGEDFALYQEKIPGFFVWMGTNGTEEWHHPAFTLDEEALTVASQYFAELAVIVLETIK	494.5 ± 67.4	112	82.5 ± 9.2	
YtnL (Bacillus subtilis subsp. subtilis str. 168) (protein) MSLDYWRNIEGSYPYQTTGNDILTLKEESNPVNLSTLEKQLIGIRRHLHQYPELSKEEFETTAFIKKCLKEKGIQIRPTALKTGVFADIAGESEGPAIALRADIDALPIEEKTGLPYASKHKGIMHACGHDFHTAALLGAAFLLKENQDSLKGKIRLLFQPAEEAGAGATKVIEDGQLDGIDAVIGLHNKPDIAVGTVGLKTGPLMAAVDRFKVEIEGKGAHAALPHNGFDPIIGASQLIVALQTIVSRNVNPLQSAILTVGKINGGSTWNVIPDTVVIEGTVRTFDSEVRNQVKQRFFAVTEQISAAFSLKANVKWHSGPPPLCNDEAITGLVRDAAHKAKLQVIDPAPSTAGEDFAYYLEHIPGSFAFFGTDGDHDWHHPAFTIDETAIIKASYFLYESAKRLLDSNEESKISD	855.0 ± 339.2	43	34.2 ± 3.8	40000 ± 11000
